The values that follow come from PMC10450741.

This experiment deals with biotinylated γTuRC-mBFP-AviTag (human | human (endogenous in HeLa-Kyoto)) (UniProt Q9BSJ2). Kind of experiment: TIRF microscopy; γTuRC nucleation assay: biotinylated γTuRC-mBFP-AviTag held on the glass by NeutrAvidin (1-2.5 nM used), 11-15 µM tubulin, 1 mM GTP, 1 mM ATP, with or without mScarlet-KIF2A (20-100 nM), mCherry-MCAK or spastin (100 nM); 33°C, 20-30 min.
biotinylated γTuRC-mBFP-AviTag (human | human (endogenous in HeLa-Kyoto)), sequence (Q9BSJ2 whole entry, looked up): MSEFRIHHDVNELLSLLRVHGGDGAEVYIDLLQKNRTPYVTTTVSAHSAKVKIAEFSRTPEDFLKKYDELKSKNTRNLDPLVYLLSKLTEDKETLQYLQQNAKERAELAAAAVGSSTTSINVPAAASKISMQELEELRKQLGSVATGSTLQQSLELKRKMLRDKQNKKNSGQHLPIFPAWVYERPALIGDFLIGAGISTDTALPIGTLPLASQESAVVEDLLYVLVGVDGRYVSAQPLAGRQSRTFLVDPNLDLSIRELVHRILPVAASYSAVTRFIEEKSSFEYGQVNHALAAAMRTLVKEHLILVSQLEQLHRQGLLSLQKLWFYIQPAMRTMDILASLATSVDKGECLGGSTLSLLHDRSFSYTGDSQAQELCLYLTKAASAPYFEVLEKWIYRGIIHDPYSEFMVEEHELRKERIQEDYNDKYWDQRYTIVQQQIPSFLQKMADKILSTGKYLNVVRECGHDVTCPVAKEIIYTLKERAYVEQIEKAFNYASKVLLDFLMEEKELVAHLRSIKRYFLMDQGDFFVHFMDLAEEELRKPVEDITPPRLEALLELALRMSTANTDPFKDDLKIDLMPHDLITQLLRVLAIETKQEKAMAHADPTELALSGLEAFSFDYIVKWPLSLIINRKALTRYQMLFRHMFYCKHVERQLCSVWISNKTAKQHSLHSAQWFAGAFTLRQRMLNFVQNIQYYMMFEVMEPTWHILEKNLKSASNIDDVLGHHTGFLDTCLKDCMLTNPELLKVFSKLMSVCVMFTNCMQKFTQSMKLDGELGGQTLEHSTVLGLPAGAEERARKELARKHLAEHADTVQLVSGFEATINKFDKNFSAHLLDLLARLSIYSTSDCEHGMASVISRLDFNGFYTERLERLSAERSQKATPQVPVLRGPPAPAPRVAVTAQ

microtubules polymerised from pig brain tubulin, sequence (P02550 whole entry): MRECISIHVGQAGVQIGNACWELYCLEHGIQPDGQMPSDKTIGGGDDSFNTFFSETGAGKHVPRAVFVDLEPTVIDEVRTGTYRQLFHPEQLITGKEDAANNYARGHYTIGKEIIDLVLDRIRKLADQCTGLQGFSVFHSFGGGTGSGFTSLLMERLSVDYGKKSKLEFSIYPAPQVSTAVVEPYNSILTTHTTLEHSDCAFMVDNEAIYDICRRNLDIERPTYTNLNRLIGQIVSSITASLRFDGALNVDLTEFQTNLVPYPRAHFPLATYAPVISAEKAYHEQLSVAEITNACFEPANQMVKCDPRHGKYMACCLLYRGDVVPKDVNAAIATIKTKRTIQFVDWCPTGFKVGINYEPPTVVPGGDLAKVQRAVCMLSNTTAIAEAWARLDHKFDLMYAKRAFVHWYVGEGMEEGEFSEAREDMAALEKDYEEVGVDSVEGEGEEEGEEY
microtubules polymerised from pig brain tubulin, sequence (Q767L7 whole entry): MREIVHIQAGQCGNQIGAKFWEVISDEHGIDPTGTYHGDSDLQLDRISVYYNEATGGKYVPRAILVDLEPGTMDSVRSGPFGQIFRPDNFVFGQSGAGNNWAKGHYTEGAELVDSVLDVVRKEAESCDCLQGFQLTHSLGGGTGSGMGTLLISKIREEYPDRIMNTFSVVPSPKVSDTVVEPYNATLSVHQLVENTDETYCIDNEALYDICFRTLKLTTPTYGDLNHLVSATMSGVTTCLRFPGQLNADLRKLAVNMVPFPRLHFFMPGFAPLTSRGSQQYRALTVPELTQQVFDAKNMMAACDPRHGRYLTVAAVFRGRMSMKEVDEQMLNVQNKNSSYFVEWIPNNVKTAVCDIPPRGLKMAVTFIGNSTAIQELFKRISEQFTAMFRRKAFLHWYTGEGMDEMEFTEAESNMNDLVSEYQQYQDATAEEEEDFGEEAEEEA

On to “microtubules polymerised from pig brain tubulin (from UniProt P02550 1-451; Q767L7 1-444) (complex)”, for which the percent of microtubules released from immobilized γTuRC (with 20 nM mScarlet-KIF2A alone) was determined as 2%; the percent of microtubules released from immobilized γTuRC (with 100 nM spastin alone) was determined as 1%; the percent of microtubules released from immobilized γTuRC (with 100 nM spastin and 20 nM mScarlet-KIF2A) worked out at 40%.
